Results published in patent US20030013651A1 (BARNES JEWISH HOSPITAL, published 2003).

Target: T1, RANK (Receptor Activator of NF-kappa B) on primary murine cells (murine, UniProt O35305 31-625)
T1 construct: whole, on cells; Endogenous receptor on the cells
T1 sequence (looked up): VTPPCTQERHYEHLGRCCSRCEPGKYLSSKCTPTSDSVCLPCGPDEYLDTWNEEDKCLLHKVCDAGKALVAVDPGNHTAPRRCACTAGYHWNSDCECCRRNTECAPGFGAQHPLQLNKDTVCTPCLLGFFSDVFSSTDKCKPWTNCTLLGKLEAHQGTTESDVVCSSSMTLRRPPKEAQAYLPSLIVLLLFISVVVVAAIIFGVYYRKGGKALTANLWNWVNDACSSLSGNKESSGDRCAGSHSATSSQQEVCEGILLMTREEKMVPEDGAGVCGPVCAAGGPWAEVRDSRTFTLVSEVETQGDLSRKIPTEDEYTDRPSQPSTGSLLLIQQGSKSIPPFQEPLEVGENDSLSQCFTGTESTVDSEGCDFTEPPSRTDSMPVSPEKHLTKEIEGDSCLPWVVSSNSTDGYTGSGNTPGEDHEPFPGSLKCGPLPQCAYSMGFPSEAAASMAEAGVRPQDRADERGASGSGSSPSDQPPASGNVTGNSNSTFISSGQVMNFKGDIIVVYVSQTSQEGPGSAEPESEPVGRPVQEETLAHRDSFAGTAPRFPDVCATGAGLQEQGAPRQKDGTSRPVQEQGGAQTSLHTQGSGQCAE
Assay: confocal microscopy of primary murine osteoblasts exposed to 5 nM ligand, RANK stained with anti-RANK antibody
Protocol: Primary murine osteoblasts were maintained in α-MEM containing 10% fetal bovine serum, and cultured in MEM containing 15% FBS, 50 μM ascorbic acid, and 10 mM β-glycerophosphate for differentiation. Cells were maintained at 37° C. in a humidified atmosphere containing 6% CO₂, with daily replenishment of media and cytokines. Primary murine osteoblasts were cultured on coverslips in A-MEM containing 10% fetal bovine serum and treated with GST-RANKL or cleaved RANKL for the indicated times. For phospholipid membrane staining, cells were incubated for 20 minutes with Vybrant Dil lipophilic carbocyanine membrane fluorescent stain (Molecular Probes). Cells were fixed in 4% paraformaldehyde, permeabilized with 0.1% Triton-X, blocked with 1% BSA/0.2% nonfat dry milk in PBS, and stained for RANK with a polyclonal anti-RANK antibody. Serial optical sections were obtained using a Radiance2100 laser scanning confocal microscope (BioRad). Microscope settings were calibrated to black level values using cells stained with an isotypic Ig control. GST-RANKL was cleaved as described in Example 12.
Primary osteoblasts in culture were exposed to 5 nM cleaved RANKL or GST-RANKL. […] Confocal microscopy was employed to localize RANK (green fluorescence) and the cell surface (red fluorescence). On the merged images, colocalization of RANK and the cell surface appears yellow (overlap of green and red fluorescence). […]

Binder	binding result
GST-RANKL fusion protein (glutathione S-transferase fused N-terminally to murine RANKL residues 158-316) (ligand, By size exclusion it is a polydisperse mixture of mono-trimeric (1 n) and oligomeric (2-100 n) units; also called oligomeric GST-RANKL; not shown: vector-encoded linker with protease site between GST and the SalI cloning site) KPEAQPFAHLTINAASIPSGSHKVTLSSWYHDRGWAKISNMTLSNGKLRVNQDGFYYLYANICFRHHETSGSVPTDYLQLMVYVVKTSIKIPSSHNLMKGGSTKNWSGNSEFHFYSINVGGFFKLRAGEEISIQVSNPSLLDPDQDATYFGAFKVQDID	binds
cleaved RANKL (murine RANKL residues 158-316 with GST removed by rhinovirus 3C protease) (ligand, It migrated as a single trimeric species (1 n) in gel filtration; also called RANKL alone) KPEAQPFAHLTINAASIPSGSHKVTLSSWYHDRGWAKISNMTLSNGKLRVNQDGFYYLYANICFRHHETSGSVPTDYLQLMVYVVKTSIKIPSSHNLMKGGSTKNWSGNSEFHFYSINVGGFFKLRAGEEISIQVSNPSLLDPDQDATYFGAFKVQDID	binds
